The text below walks through data of patent publication US20060002928A1.

In test [1] the target is murine B7-DC (murine) (UniProt Q9WUL5). Description: cell-based or functional assay.
The target is the same in test [2]. Description: flow cytometry on 293T cells transfected with murine B7-DC. A general note: A flow cytometer gives signals particle by particle.
Test [3] has the same target. Description: flow cytometry competition on murine DC; preincubation with sHIgM12, staining with PD-1.Ig as competitor read out.
The target is the same in test [4]. Description: flow cytometry competition on murine bone marrow derived DC; preincubation with PD-1.Ig, staining with sHIgM12 as competitor read out.

Sequence of murine B7-DC (murine) (Q9WUL5 20-247): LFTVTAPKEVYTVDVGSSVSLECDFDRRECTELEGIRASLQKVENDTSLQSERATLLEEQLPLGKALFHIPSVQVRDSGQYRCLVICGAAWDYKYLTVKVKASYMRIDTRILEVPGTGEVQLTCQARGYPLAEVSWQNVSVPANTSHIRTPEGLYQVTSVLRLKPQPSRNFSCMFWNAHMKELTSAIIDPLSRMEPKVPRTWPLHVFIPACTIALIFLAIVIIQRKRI

In the test with murine B7-DC (murine) [1], “sHIgM12 (human monoclonal IgM antibody, pentameric, purified from patient serum)” showed a GFP+, CD11c+ DC recovered from draining lymph nodes after adoptive transfer of 5 fold; an IL-12 p70 release by DC (ELISA of culture supernatants) of 3 fold; an ability of lymph node DC to induce an antigen-specific T cell response of 10 fold; a percentage of cellular metabolism (Alamar Blue) maintained 24 hours after cytokine withdrawal from DC of 80%. The percent of transfected cells stained with murine B7-DC (murine) [2] was 97%. In addition, the PD-1 binding left, percent of the level without sHIgM12 with murine B7-DC (murine) [3] is 20%.

Turning to PD-1.Ig fusion protein (Fc fusion), in the test with murine B7-DC (murine) [4], the sHIgM12 staining left, percent of the level without PD-1 was found to be 50%.
